System: K4 kissing-loop RNA reporter
Assay: apparent KD of K4 kissing-loop reporter; higher = weaker reporter binding
Settings: Eterna round: R107
Description: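 RNA-MaP round R107: designed RNA switches with theophylline, tryptophan, arginine or FMN aptamers are transcribed on-chip within common flanks. They are titrated with a labelled K4 kissing-loop RNA reporter in RNA-MaP buffer (100 mM Tris pH 7.5, 80 mM KCl, 4 mM MgCl2), without ligand or with the indicated ligand. Median apparent KD per design.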

[1] = input ligand: theophylline 20 uM
[2] = input ligand: tryptophan 2.4 mM
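Note: bound reporter read as fluorescence of individual clusters on recovered sequencing chips by microscopy, with normalized cluster intensities fitted with a binding model.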

AUCAUAUCUAGUCAGCCCAGUGAUGUUGGGCGAGGACCGGUACGGCCGCCACUCGCUUCGUUGCGGUGGCUGGCGUUACGACAAA [Inveusma]
apparent KD of K4 kissing-loop reporter (input ligand: FMN 200 uM): 130 nM | apparent KD of K4 kissing-loop reporter (input ligand: arginine 13.2 mM): 142 nM | apparent KD of K4 kissing-loop reporter (input ligand: none): 150 nM | apparent KD of K4 kissing-loop reporter [1]: 142 nM | apparent KD of K4 kissing-loop reporter [2]: 137 nM

UAUUGAGUGAUGUUCGAUAACCAAUCAGAUACCAGUUUUGUAGAAAACCCUUGGCAGCUGCUCAGCUCUAUAAUGCUUCGCCCUU [theeternabot_sameState_KL_Theo_A_18]
apparent KD of K4 kissing-loop reporter (input ligand: FMN 200 uM): 199 nM | apparent KD of K4 kissing-loop reporter (input ligand: arginine 13.2 mM): 169 nM | apparent KD of K4 kissing-loop reporter (input ligand: none): 208 nM | apparent KD of K4 kissing-loop reporter [1]: 184 nM | apparent KD of K4 kissing-loop reporter [2]: 177 nM

AGUGAUAUAUGAGGAUAUGGGUUAAUUAGUGAGUUAUUUUUAGUGUUGUUUGAUUAGUGAUGUUAUUUAGAAGGCGUGAGUGAUG [awwswmjmullin]
apparent KD of K4 kissing-loop reporter (input ligand: FMN 200 uM): 113 nM | apparent KD of K4 kissing-loop reporter (input ligand: arginine 13.2 mM): 75 nM | apparent KD of K4 kissing-loop reporter (input ligand: none): 67.5 nM | apparent KD of K4 kissing-loop reporter [1]: 130 nM | apparent KD of K4 kissing-loop reporter [2]: 61.7 nM

GGGAGUAGUGCGGCCGCCACUGAGAAAGAAGAAGAAUAUAGUGAUGUUAUAUAGGAAAGGAAGAACAGGACCGGGCAUUAGAUUU [SSTRyptB.F]
apparent KD of K4 kissing-loop reporter (input ligand: FMN 200 uM): 232 nM | apparent KD of K4 kissing-loop reporter (input ligand: arginine 13.2 mM): 220 nM | apparent KD of K4 kissing-loop reporter (input ligand: none): 251 nM | apparent KD of K4 kissing-loop reporter [1]: 232 nM | apparent KD of K4 kissing-loop reporter [2]: 180 nM

AGUCUCAAAAGAGGCAGCACUCACGAGGACAAGGAUAUCAUCUCAAUGAGAAGGUGUCCUCGUCCCUAGUGAUGUUAGGGAGUGC [Omei KL FMN A SS E v6]
apparent KD of K4 kissing-loop reporter (input ligand: FMN 200 uM): 205 nM | apparent KD of K4 kissing-loop reporter (input ligand: arginine 13.2 mM): 265 nM | apparent KD of K4 kissing-loop reporter (input ligand: none): 305 nM | apparent KD of K4 kissing-loop reporter [1]: 682 nM | apparent KD of K4 kissing-loop reporter [2]: 437 nM

AGCUCAGAGUGACUCGAUAAGAGUCACAAACGAGGACCGGUACGGCCGCCACUCGAAACAAAGAGAGUGAUGUUCUCGCUGAGCA [FiskerMod 10 - Jieux - Same State Tryptophan A]
apparent KD of K4 kissing-loop reporter (input ligand: FMN 200 uM): 319 nM | apparent KD of K4 kissing-loop reporter (input ligand: arginine 13.2 mM): 121 nM | apparent KD of K4 kissing-loop reporter (input ligand: none): 176 nM | apparent KD of K4 kissing-loop reporter [1]: 207 nM | apparent KD of K4 kissing-loop reporter [2]: 713 nM

GGAGCUACCUGGGAUACCAGUCGGAGUCUCAGAGCUCGGAGUGAUGUUCUGGGAUGUUUCGGCCCUUGGCAGCUCUGGGACUCCU [#2 Exclusion - Theophylline B Attempt #18 (HarryS)]
apparent KD of K4 kissing-loop reporter (input ligand: FMN 200 uM): 872 nM | apparent KD of K4 kissing-loop reporter (input ligand: arginine 13.2 mM): 749 nM | apparent KD of K4 kissing-loop reporter (input ligand: none): 864 nM | apparent KD of K4 kissing-loop reporter [1]: 763 nM | apparent KD of K4 kissing-loop reporter [2]: 881 nM

UUGAGCCGGACCCAAGUCCGGCUCUGCGAGCGAGGACCGGUACGGCCGCCACUCGGUGCAGUGAUGUUGCAUGGCCGCAAGGCCG [#2 Exclusion - Tryptophan A Attempt #7 (HarryS)]
apparent KD of K4 kissing-loop reporter (input ligand: FMN 200 uM): 439 nM | apparent KD of K4 kissing-loop reporter (input ligand: arginine 13.2 mM): 294 nM | apparent KD of K4 kissing-loop reporter (input ligand: none): 377 nM | apparent KD of K4 kissing-loop reporter [1]: 372 nM | apparent KD of K4 kissing-loop reporter [2]: 460 nM

GACGGGCAGUGAUGUUGCCGGUCUCUUGGACGAGGACCGGUACGGCCGCCACUCGAUCUGAUGCGGGAAUUGCAUCUUUUAAUAA [Raorbirabe]
apparent KD of K4 kissing-loop reporter (input ligand: FMN 200 uM): 237 nM | apparent KD of K4 kissing-loop reporter (input ligand: arginine 13.2 mM): 115 nM | apparent KD of K4 kissing-loop reporter (input ligand: none): 185 nM | apparent KD of K4 kissing-loop reporter [1]: 194 nM | apparent KD of K4 kissing-loop reporter [2]: 333 nM

ACGUCUCGUUAAAUCGUGGUUUCGAUCGAUACCAGUAGCGAGAGUUACCCUUGGCAGCGAAAUGAGUGAUGUUCAUGAAAGAAGA [KL-XTheoA9]
apparent KD of K4 kissing-loop reporter (input ligand: FMN 200 uM): 65.2 nM | apparent KD of K4 kissing-loop reporter (input ligand: arginine 13.2 mM): 109 nM | apparent KD of K4 kissing-loop reporter (input ligand: none): 69.4 nM | apparent KD of K4 kissing-loop reporter [1]: 130 nM | apparent KD of K4 kissing-loop reporter [2]: 57.3 nM

UGUCAUUGGUCUGAUACCAGCUGAUCGGAAACGAUCUUGCUGGAGUGAUGUUCCAGGAAAAGCCCUUGGCAGCAGACCGAUGACU [TheoBS 10 #SwitchBubble #StaticStem]
apparent KD of K4 kissing-loop reporter (input ligand: FMN 200 uM): 1320 nM | apparent KD of K4 kissing-loop reporter (input ligand: arginine 13.2 mM): 445 nM | apparent KD of K4 kissing-loop reporter (input ligand: none): 1210 nM | apparent KD of K4 kissing-loop reporter [1]: 1100 nM | apparent KD of K4 kissing-loop reporter [2]: 1220 nM

ACAUGUUCCAGUGAUGUUGGCGUACGUGAUACCAGACGAAUAAAAGUCCCUUGGCAGCACAAAUAAGCCAAGAUAGGUGAAUGAU [#04 K4 Theophylline A Exclusion]
apparent KD of K4 kissing-loop reporter (input ligand: FMN 200 uM): 403 nM | apparent KD of K4 kissing-loop reporter (input ligand: arginine 13.2 mM): 272 nM | apparent KD of K4 kissing-loop reporter (input ligand: none): 495 nM | apparent KD of K4 kissing-loop reporter [1]: 538 nM | apparent KD of K4 kissing-loop reporter [2]: 405 nM

UGAGUUAGACAAAAGUCUAGCUCUGGUGAAGGAGCGUCCGAAAGGACAGGUAGGUCGCACCACCUGAGUGAUGUUCAGAAUCCUU [KL-SSArg-A22]
apparent KD of K4 kissing-loop reporter (input ligand: FMN 200 uM): 670 nM | apparent KD of K4 kissing-loop reporter (input ligand: arginine 13.2 mM): 506 nM | apparent KD of K4 kissing-loop reporter (input ligand: none): 789 nM | apparent KD of K4 kissing-loop reporter [1]: 762 nM | apparent KD of K4 kissing-loop reporter [2]: 468 nM

UCUUUACCGGGAAGGAGCGUGAAUGAGAAUGGAUAUAGUGAUGUUAUGUAUACGAACGAAUCGCAGGUAGGUCGCCCGGAUCCCU [SSArgB.aB]
apparent KD of K4 kissing-loop reporter (input ligand: FMN 200 uM): 1150 nM | apparent KD of K4 kissing-loop reporter (input ligand: arginine 13.2 mM): 316 nM | apparent KD of K4 kissing-loop reporter (input ligand: none): 643 nM | apparent KD of K4 kissing-loop reporter [1]: 685 nM | apparent KD of K4 kissing-loop reporter [2]: 485 nM

UGGAUAUAGUGAUGUUAUAUAGAGAGUGAUACCAGUUUAGAGAAGAACCCUUGGCAGCAUAGAGAAGUAUCAUUAGAGAAGAAUG [ExTheophyl.Ap]
apparent KD of K4 kissing-loop reporter (input ligand: FMN 200 uM): 220 nM | apparent KD of K4 kissing-loop reporter (input ligand: arginine 13.2 mM): 208 nM | apparent KD of K4 kissing-loop reporter (input ligand: none): 233 nM | apparent KD of K4 kissing-loop reporter [1]: 240 nM | apparent KD of K4 kissing-loop reporter [2]: 180 nM

UGGGUGUAGUGAUGUUAUAUAGAGAGUGAUACCAGCGUAGAGAGAUGCCCUUGGCAGCAUAGAAGAGUAUCAUUGGAGGAGGAGG [ExTheophyl.Az]
apparent KD of K4 kissing-loop reporter (input ligand: FMN 200 uM): 689 nM | apparent KD of K4 kissing-loop reporter (input ligand: arginine 13.2 mM): 743 nM | apparent KD of K4 kissing-loop reporter (input ligand: none): 883 nM | apparent KD of K4 kissing-loop reporter [1]: 730 nM | apparent KD of K4 kissing-loop reporter [2]: 514 nM

UGACUUGCCUGAGGAUAUCUAGGAUAUCCAUAAAAGAAAAUAAUAAUCCAGUGAUGUUGGAGAAGGAGAGAAGGCAGGUAAGUCU [KL-XFMN-B17 #DoubleAptamer #SwitchBubble]
apparent KD of K4 kissing-loop reporter (input ligand: FMN 200 uM): 176 nM | apparent KD of K4 kissing-loop reporter (input ligand: arginine 13.2 mM): 114 nM | apparent KD of K4 kissing-loop reporter (input ligand: none): 119 nM | apparent KD of K4 kissing-loop reporter [1]: 112 nM | apparent KD of K4 kissing-loop reporter [2]: 119 nM

AAUUUAUUAACUGAUACCAGACUUUAGCGCGUUUAUAAGUCAAGUGAUGUUUGACUAAUUGUCCCUUGGCAGCAGUAUUUAUUAA [JR_SSTheophyB_Sub021]
apparent KD of K4 kissing-loop reporter (input ligand: FMN 200 uM): 233 nM | apparent KD of K4 kissing-loop reporter (input ligand: arginine 13.2 mM): 210 nM | apparent KD of K4 kissing-loop reporter (input ligand: none): 216 nM | apparent KD of K4 kissing-loop reporter [1]: 157 nM | apparent KD of K4 kissing-loop reporter [2]: 197 nM

GCGCGUCAUGUCAGCGGUGACACUGUCGAUACCAGUGCCGAAAGGCGCCCUUGGCAGCGACGUGCUGGAGUGAUGUUCCAGCGUU [#2 Exclusion - Theophylline A Attempt #30 (HarryS)]
apparent KD of K4 kissing-loop reporter (input ligand: FMN 200 uM): 154 nM | apparent KD of K4 kissing-loop reporter (input ligand: arginine 13.2 mM): 135 nM | apparent KD of K4 kissing-loop reporter (input ligand: none): 151 nM | apparent KD of K4 kissing-loop reporter [1]: 149 nM | apparent KD of K4 kissing-loop reporter [2]: 145 nM

GGGAGGAACUGAGGAUAUUCGAAGAAAUAUAGUGAUGUUAUGUAAGGAGGAGGAGGGAGGGAGGAAGGAGAAGGCAGAAGAGGAG [ExFMNB.A]
apparent KD of K4 kissing-loop reporter (input ligand: FMN 200 uM): 428 nM | apparent KD of K4 kissing-loop reporter (input ligand: arginine 13.2 mM): 415 nM | apparent KD of K4 kissing-loop reporter (input ligand: none): 500 nM | apparent KD of K4 kissing-loop reporter [1]: 294 nM | apparent KD of K4 kissing-loop reporter [2]: 433 nM

UGUGCUGUGUACUGUAAUGUUAUGCGGGAUACCAGAGUCUUUUUAUUCCCUUGGCAGCUUGAGUGAUGUUUGAUGCUGUUCUUGU [kiokmullin]
apparent KD of K4 kissing-loop reporter (input ligand: FMN 200 uM): 362 nM | apparent KD of K4 kissing-loop reporter (input ligand: arginine 13.2 mM): 301 nM | apparent KD of K4 kissing-loop reporter (input ligand: none): 370 nM | apparent KD of K4 kissing-loop reporter [1]: 331 nM | apparent KD of K4 kissing-loop reporter [2]: 314 nM
